Test results as given in US20250144228A1 (published 2025).

Assays:
[1] = biological target: A/Hong Kong/8/1968 (H3N2) (influenza A virus)
[2] = biological target: A/Wisconsin/629-D00015/2009 (H1N1)pdm09 (influenza A virus)
[3] = biological target: Influenza A virus - A/Hong Kong/8/1968 (H3N2) (influenza A virus)
hemagglutinin = hemagglutinin (influenza A virus)
mouse IgG2b = mouse IgG2b (mouse); test: ELISA
[4] = biological target: T1, P. falciparum MSP-1 subunit p42 (plate-bound, isolated) (Plasmodium falciparum, UniProt Q8I0U8 1327-1699); test: ELISA
T1 chain: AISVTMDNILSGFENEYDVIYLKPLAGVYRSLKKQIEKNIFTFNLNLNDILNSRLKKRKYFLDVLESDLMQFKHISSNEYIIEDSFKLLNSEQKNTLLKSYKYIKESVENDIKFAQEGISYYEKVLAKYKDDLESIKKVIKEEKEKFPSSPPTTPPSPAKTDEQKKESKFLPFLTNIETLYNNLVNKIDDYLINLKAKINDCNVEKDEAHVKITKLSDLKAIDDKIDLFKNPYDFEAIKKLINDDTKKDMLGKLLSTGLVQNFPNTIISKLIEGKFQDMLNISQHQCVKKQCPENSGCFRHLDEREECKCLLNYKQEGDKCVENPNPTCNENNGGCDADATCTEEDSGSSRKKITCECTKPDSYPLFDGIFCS

mouse polyclonal IgA = biological target: T2, mouse polyclonal IgA (mouse, UniProt P11911); test: ELISA
T2 sequence (P11911 whole entry, looked up): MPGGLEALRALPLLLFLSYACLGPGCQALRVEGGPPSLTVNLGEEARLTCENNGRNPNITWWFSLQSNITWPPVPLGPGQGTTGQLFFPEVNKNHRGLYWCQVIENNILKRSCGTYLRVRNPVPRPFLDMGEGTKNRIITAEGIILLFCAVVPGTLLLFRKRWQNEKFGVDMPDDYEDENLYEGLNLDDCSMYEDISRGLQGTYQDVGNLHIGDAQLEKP

mouse polyclonal IgG = mouse polyclonal IgG (mouse); test: ELISA
[5] = biological target: a monoclonal mouse IgM, κ Isotype Ctrl (mouse); test: ELISA
[6] = biological target: T3, P. falciparum MSP-1 subunit p83 (plate-bound, isolated) (Plasmodium falciparum, UniProt Q8I0U8 20-722); test: ELISA
T3 chain: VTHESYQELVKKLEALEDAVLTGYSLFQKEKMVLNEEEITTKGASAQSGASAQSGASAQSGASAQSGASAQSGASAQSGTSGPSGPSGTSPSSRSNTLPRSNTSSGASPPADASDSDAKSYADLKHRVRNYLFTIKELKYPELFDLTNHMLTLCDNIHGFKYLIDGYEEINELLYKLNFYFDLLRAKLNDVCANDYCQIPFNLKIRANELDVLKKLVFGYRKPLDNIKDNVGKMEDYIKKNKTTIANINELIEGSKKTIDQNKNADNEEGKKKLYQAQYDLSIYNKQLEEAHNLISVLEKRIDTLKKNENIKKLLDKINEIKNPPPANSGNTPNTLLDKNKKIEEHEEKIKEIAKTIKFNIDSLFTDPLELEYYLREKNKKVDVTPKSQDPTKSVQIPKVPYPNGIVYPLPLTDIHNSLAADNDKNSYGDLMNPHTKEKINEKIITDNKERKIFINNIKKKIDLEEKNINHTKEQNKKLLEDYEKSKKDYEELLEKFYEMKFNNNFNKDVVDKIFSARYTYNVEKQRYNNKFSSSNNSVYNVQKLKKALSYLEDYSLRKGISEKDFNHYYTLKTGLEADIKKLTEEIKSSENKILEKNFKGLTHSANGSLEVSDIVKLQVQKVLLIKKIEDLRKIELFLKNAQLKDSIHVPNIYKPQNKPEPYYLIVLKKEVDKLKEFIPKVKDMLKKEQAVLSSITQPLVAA

B1: SD36-biotin (VHH)
VHH: EVQLVESGGGLVQAGGSLKLSCAASGRTYAMGWFRQAPGKEREFVAHINALGTRTYYSDSVKGRFTISRDNAKNTEYLEMNNLKPEDTAVYYCTAQGQWRAAPVAVAAEYEFWGQGTQVTVSS
B1 showed a Kd [1] of 1.3 nM and a Kd [2] of 18.7 nM.

B2: VHHkappa-SD36 (bispecific antibody, V domains shown)
V domain 1: QVQLVESGGGWVQPGGSLRLSCAASGFTFSDTAMMWVRQAPGKGREWVAAIDTGGGYTYYADSVKGRFTISRDNAKNTLYLQMNSLKPEDTARYYCAKTYSGNYYSNYTVANYGTTGRGTLVTVSS
V domain 2: EVQLVESGGGLVQAGGSLKLSCAASGRTYAMGWFRQAPGKEREFVAHINALGTRTYYSDSVKGRFTISRDNAKNTEYLEMNNLKPEDTAVYYCTAQGQWRAAPVAVAAEYEFWGQGTQVTVSS
B2 was tested, and the Kd [3] was 0.6 nM and the Kd (hemagglutinin) was 15.5 nM.

B3: VHHkappa-SD36-biotin-2 (bispecific antibody, V domains shown)
V domain 1: QVQLVESGGGWVQPGGSLRLSCAASGFTFSDTAMMWVRQAPGKGREWVAAIDTGGGYTYYADSVKGRFTISRDNAKNTLYLQMNSLKPEDTARYYCAKTYSGNYYSNYTVANYGTTGRGTLVTVSS
V domain 2: EVQLVESGGGLVQAGGSLKLSCAASGRTYAMGWFRQAPGKEREFVAHINALGTRTYYSDSVKGRFTISRDNAKNTEYLEMNNLKPEDTAVYYCTAQGQWRAAPVAVAAEYEFWGQGTQVTVSS
For B3, the Kd (mouse IgG2b) was 2.4 nM.

B4: VHHkappa-SD36-biotin-1 (bispecific antibody, V domains shown)
V domain 1: QVQLVESGGGWVQPGGSLRLSCAASGFTFSDTAMMWVRQAPGKGREWVAAIDTGGGYTYYADSVKGRFTISRDNAKNTLYLQMNSLKPEDTARYYCAKTYSGNYYSNYTVANYGTTGRGTLVTVSS
V domain 2: EVQLVESGGGLVQAGGSLKLSCAASGRTYAMGWFRQAPGKEREFVAHINALGTRTYYSDSVKGRFTISRDNAKNTEYLEMNNLKPEDTAVYYCTAQGQWRAAPVAVAAEYEFWGQGTQVTVSS
B4 was tested, and the Kd (mouse IgG2b) was 2 nM.

B5: anti-p42 G11 VHH (P. falciparum MSP-1 specific) (VHH)
VHH: QVQLVETGGGLVQAGGSLRLSCVVSGRSLILYGMGWFRQAPGKEREFVAGIVWNGGWTYYADSVKGRFTISRDTAKNTVYLQMNSLKPEDTAVYSCAAGPGDGRRRVAPAEYNYWGQGTQVTVSS
Work on B5 yielded a Kd [4] of 0.52 nM.

B6: VHHkappa-SD36-biotin (genetic fusion) (bispecific antibody)
chain: QVQLVESGGGWVQPGGSLRLSCAASGFTFSDTAMMWVRQAPGKGREWVAAIDTGGGYTYYADSVKGRFTISRDNAKNTLYLQMNSLKPEDTARYYCAKTYSGNYYSNYTVANYGTTGRGTLVTVSSAAAGGGGSGGGGSGGGGSEVQLVESGGGLVQAGGSLKLSCAASGRTYAMGWFRQAPGKEREFVAHINALGTRTYYSDSVKGRFTISRDNAKNTEYLEMNNLKPEDTAVYYCTAQGQWRAAPVAVAAEYEFWGQGTQVTVSSGGLPETGGHHHHHH
B6 showed a Kd [1] of 1.8 nM and a Kd [2] of 59.7 nM.

B7: VHHkappa (mouse)-SD36-biotin (bispecific antibody)
chain: QVQLVESGGGWVQPGGSLRLSCAASGFTFSDTAMMWVRQAPGKGREWVAAIDTGGGYTYYADSVKGRFTISRDNAKNTLYLQMNSLKPEDTARYYCAKTYSGNYYSNYTVANYGTTGRGTLVTVSSAAAGGGGSGGGGSGGGGSEVQLVESGGGLVQAGGSLKLSCAASGRTYAMGWFRQAPGKEREFVAHINALGTRTYYSDSVKGRFTISRDNAKNTEYLEMNNLKPEDTAVYYCTAQGQWRAAPVAVAAEYEFWGQGTQVTVSSGGLPETGGHHHHHH
For B7, the Kd (mouse polyclonal IgA) was 0.434 nM, the Kd (mouse polyclonal IgG) was 0.0083 nM and the Kd [5] was 0.0102 nM.

B8: anti-p42 A6 VHH (P. falciparum MSP-1 specific) (VHH)
VHH: QVQLVESGGGLVQAGGSLRLSCAASARTFSYYGAAWFRQAPGKEREFVAAVSWNGDDTYYADSVKGRFTISRDNTKNTVSLQMNALKPEDTAVYYCEAAAYGRDWRQSANYVYWGQGTQVTVSS
For B8, the Kd [4] was 1.96 nM.

B9: VHHkappa (mouse)-biotin (VHH)
VHH: QVQLVESGGGWVQPGGSLRLSCAASGFTFSDTAMMWVRQAPGKGREWVAAIDTGGGYTYYADSVKGRFTISRDNAKNTLYLQMNSLKPEDTARYYCAKTYSGNYYSNYTVANYGTTGRGTLVTVSS
B9 was tested, and the Kd (mouse polyclonal IgA) was 0.508 nM, the Kd (mouse polyclonal IgG) was 0.0072 nM and the Kd [5] was 0.0112 nM.

B10: VHHkappa-biotin (VHH)
VHH: QVQLVESGGGWVQPGGSLRLSCAASGFTFSDTAMMWVRQAPGKGREWVAAIDTGGGYTYYADSVKGRFTISRDNAKNTLYLQMNSLKPEDTARYYCAKTYSGNYYSNYTVANYGTTGRGTLVTVSS
Binder B10 has a Kd (mouse IgG2b) of 2.1 nM.

B11: anti-p83 B4 VHH (P. falciparum MSP-1 specific) (VHH)
VHH: QLQLVESGGGLAQAGGSLRLSCAASGRTSSTKPMGWFRQAPGLEREFVASISWLGGSTLYSDSVKGRFTISRDNAKNTVYLQMNSLKSEDTAVYYCAGGTSAYSGRDSSRYEYWGQGTQVTVSS
With B11 the Kd [6] was 1.81 nM.
